Test results taken from IntAct's records for PubMed 31515488.

B1: Splicing factor 45 (Homo sapiens), Q96I25 (parent)
chain: MSLYDDLGVETSDSKTEGWSKNFKLLQSQLQVKKAALTQAKSQRTKQSTVLAPVIDLKRGGSSDDRQIVDTPPHVAAGLKDPVPSGFSAGEVLIPLADEYDPMFPNDYEKVVKRQREERQRQRELERQKEIEEREKRRKDRHEASGFARRPDPDSDEDEDYERERRKRSMGGAAIAPPTSLVEKDKELPRDFPYEEDSRPRSQSSKAAIPPPVYEEQDRPRSPTGPSNSFLANMGGTVAHKIMQKYGFREGQGLGKHEQGLSTALSVEKTSKRGGKIIVGDATEKDASKKSDSNPLTEILKCPTKVVLLRNMVGAGEVDEDLEVETKEECEKYGKVGKCVIFEIPGAPDDEAVRIFLEFERVESAIKAVVDLNGRYFGGRVVKACFYNLDKFRVLDLAEQV
partner: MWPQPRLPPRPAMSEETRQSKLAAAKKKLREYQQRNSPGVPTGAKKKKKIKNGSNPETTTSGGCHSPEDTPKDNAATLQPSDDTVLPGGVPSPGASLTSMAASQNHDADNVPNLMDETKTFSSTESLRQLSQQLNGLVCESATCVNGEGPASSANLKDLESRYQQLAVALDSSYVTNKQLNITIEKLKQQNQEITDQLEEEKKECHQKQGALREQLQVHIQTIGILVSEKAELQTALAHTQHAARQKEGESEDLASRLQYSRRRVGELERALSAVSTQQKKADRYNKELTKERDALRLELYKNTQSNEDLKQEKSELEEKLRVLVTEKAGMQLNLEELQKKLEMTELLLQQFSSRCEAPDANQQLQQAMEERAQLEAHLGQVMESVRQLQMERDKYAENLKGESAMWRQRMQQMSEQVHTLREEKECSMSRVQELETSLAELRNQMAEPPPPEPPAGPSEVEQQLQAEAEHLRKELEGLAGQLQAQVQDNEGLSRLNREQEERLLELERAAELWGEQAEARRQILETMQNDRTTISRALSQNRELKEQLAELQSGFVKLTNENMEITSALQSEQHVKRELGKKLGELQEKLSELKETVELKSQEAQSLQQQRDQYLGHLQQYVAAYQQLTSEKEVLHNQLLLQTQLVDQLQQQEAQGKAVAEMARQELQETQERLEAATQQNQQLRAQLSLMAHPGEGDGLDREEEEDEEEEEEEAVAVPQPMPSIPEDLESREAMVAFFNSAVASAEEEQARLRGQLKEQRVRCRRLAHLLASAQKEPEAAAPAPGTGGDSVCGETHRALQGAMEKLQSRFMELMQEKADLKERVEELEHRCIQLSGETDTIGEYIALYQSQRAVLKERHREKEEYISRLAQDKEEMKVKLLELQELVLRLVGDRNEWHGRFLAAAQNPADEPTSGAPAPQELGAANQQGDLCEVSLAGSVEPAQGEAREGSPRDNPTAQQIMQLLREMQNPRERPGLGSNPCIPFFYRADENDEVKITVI
B2: Nuclear pore glycoprotein p62 (Homo sapiens), P37198 (parent)
chain: MSGFNFGGTGAPTGGFTFGTAKTATTTPATGFSFSTSGTGGFNFGAPFQPATSTPSTGLFSLATQTPATQTTGFTFGTATLASGGTGFSLGIGASKLNLSNTAATPAMANPSGFGLGSSNLTNAISSTVTSSQGTAPTGFVFGPSTTSVAPATTSGGFSFTGGSTAQPSGFNIGSAGNSAQPTAPATLPFTPATPAATTAGATQPAAPTPTATITSTGPSLFASIATAPTSSATTGLSLCTPVTTAGAPTAGTQGFSLKAPGAASGTSTTTSTAATATATTTSSSSTTGFALNLKPLAPAGIPSNTAAAVTAPPGPGAAAGAAASSAMTYAQLESLINKWSLELEDQERHFLQQATQVNAWDRTLIENGEKITSLHREVEKVKLDQKRLDQELDFILSQQKELEDLLSPLEELVKEQSGTIYLQHADEEREKTYKLAENIDAQLKRMAQDLKDIIEHLNTSGAPADTSDPLQQICKILNAHMDSLQWIDQNSALLQRKVEEVTKVCEGRRKEQERSFRITFD
partner: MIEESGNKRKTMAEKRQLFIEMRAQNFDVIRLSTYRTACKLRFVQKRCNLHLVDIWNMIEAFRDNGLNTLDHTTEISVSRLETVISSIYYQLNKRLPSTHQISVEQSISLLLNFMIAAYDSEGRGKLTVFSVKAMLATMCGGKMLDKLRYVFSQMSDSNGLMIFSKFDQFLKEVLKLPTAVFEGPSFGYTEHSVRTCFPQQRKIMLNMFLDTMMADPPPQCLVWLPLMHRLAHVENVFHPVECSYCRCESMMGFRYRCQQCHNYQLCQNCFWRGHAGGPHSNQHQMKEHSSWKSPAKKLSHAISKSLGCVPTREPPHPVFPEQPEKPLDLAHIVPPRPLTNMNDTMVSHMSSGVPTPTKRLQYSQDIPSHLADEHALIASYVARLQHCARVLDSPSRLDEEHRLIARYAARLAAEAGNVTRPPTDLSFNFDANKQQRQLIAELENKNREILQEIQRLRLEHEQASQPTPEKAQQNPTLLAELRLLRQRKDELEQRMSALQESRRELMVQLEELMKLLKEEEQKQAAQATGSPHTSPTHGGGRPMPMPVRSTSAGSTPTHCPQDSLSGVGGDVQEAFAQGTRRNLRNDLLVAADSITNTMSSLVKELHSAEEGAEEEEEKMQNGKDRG
B3: Protein FAM9B (Homo sapiens), Q8IZU0 (parent)
chain: MAAWGKKHAGKDPVRDECEERNRFTETREEDVTDEHGEREPFAETDEHTGANTKKPEDTAEDLTAKRKRMKMDKTCSKTKNKSKHALRKKQLKRQKRDYIHSLKLLNVLEEYITDEQKEEEEEEGEEEELIRIFQEQQKKWQQYRSVRRERLKEMKLLRDQFVKALEDFEDLCDRVFSDEDSELDN
partner: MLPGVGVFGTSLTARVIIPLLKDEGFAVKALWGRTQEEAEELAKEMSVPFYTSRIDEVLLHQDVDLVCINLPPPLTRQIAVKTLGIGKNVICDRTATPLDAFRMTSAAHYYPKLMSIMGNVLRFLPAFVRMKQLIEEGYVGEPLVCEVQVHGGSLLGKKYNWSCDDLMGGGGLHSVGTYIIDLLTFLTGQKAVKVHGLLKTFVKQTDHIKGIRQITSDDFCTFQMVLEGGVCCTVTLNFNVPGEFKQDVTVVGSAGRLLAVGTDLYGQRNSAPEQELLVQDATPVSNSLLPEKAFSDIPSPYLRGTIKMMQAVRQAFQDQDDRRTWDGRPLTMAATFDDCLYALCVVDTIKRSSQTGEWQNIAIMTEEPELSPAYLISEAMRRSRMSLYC
B4: Cyclin-H (Homo sapiens), P51946 (parent)
chain: MYHNSSQKRHWTFSSEEQLARLRADANRKFRCKAVANGKVLPNDPVFLEPHEEMTLCKYYEKRLLEFCSVFKPAMPRSVVGTACMYFKRFYLNNSVMEYHPRIIMLTCAFLACKVDEFNVSSPQFVGNLRESPLGQEKALEQILEYELLLIQQLNFHLIVHNPYRPFEGFLIDLKTRYPILENPEILRKTADDFLNRIALTDAYLLYTPSQIALTAILSSASRAGITMESYLSESLMLKENRTCLSQLLDIMKSMRNLVKKYEPPRSEEVAVLKQKLERCHSAELALNVITKKRKGYEDDDYVSKKSKHEEEEWTDDDLVESL
partner: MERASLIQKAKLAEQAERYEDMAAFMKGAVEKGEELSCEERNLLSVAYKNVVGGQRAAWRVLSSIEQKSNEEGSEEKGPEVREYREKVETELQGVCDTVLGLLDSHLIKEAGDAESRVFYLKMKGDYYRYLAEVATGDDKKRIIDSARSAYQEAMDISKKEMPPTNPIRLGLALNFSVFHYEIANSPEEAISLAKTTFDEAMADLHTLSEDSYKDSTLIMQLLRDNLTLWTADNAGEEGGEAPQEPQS
B5: Actin nucleation-promoting factor WAS (Homo sapiens), P42768 (parent)
chain: MSGGPMGGRPGGRGAPAVQQNIPSTLLQDHENQRLFEMLGRKCLTLATAVVQLYLALPPGAEHWTKEHCGAVCFVKDNPQKSYFIRLYGLQAGRLLWEQELYSQLVYSTPTPFFHTFAGDDCQAGLNFADEDEAQAFRALVQEKIQKRNQRQSGDRRQLPPPPTPANEERRGGLPPLPLHPGGDQGGPPVGPLSLGLATVDIQNPDITSSRYRGLPAPGPSPADKKRSGKKKISKADIGAPSGFKHVSHVGWDPQNGFDVNNLDPDLRSLFSRAGISEAQLTDAETSKLIYDFIEDQGGLEAVRQEMRRQEPLPPPPPPSRGGNQLPRPPIVGGNKGRSGPLPPVPLGIAPPPPTPRGPPPPGRGGPPPPPPPATGRSGPLPPPPPGAGGPPMPPPPPPPPPPPSSGNGPAPPPLPPALVPAGGLAPGGGRGALLDQIRQGIQLNKTPGAPESSALQPPPQSSEGLVGALMHVMQKRSRAIHSSDEGEDQAGDEDEDDEWDD

Variants of: B1
Conditions: with goga2_human GOLGA2, Q08379

effect of a mutation on the interaction | Variant
with no effect | T224I

Variants of: B2
Conditions: with dtnb_human DTNB

effect of a mutation on the interaction | Variant
with no effect | A279T

Variants of: B3
Conditions: with gfod1_human GFOD1, Q9NXC2

effect of a mutation on the interaction | Variant
with no effect | R23H

Variants of: B4
Conditions: with 1433s_human SFN

effect of a mutation on the interaction | Variant
with no effect | N155T

Variants of: B5
Conditions: with cdc42_human CDC42, P60953
Sequence of cdc42_human CDC42, P60953 (P60953 whole entry, looked up): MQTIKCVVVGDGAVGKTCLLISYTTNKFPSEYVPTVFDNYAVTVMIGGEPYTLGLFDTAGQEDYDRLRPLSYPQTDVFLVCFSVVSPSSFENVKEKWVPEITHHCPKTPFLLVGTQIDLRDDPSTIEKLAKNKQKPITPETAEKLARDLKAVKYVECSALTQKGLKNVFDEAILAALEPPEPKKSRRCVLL

effect of a mutation on the interaction | Variant
with no effect | E131K
disrupting interaction strength | I294T
